Results on 41 sequences are retold here after the nanobody polyreactivity screen of Harvey et al. (2022).

The data set is described as follows: yeast display, Sf9 membrane polyspecificity reagent, FACS + sequencing; frameworks hold sequencing errors. The method, boiled down: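 Sorting gates, low and high (top ~1%), were placed on anti-HA fluorescence to track expression and on streptavidin fluorescence to track reagent binding. A clone's polyreactivity label is taken from the gate it came out of. The reagent was 10% biotinylated, detergent-solubilized Sf9 membrane, applied for 1 hour at 4 °C to galactose-induced yeast display cells.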
On to “QVQLVESVGGLVQAGGSLRLSCAASGFTFLWYAMGWYRQAPGKEWELVAAINSSGVRTYYADSVKGRFTISRDNAKNTVYLLMNSLKPEDTAVYYCAAYQKTYTEDEYWGQGTQVTVSS”, for which the “polyreactivity (PSR sort gate)” value was “high polyreactivity”.

For “QVQLVESGGGLVQAGGSLRLICAASGSIITGYPMGWYRQAPGKERELVAGINSGTSTNFADSVKGRFTISRDNAKNTVFLQMNSMKPEDTAVYYCAKTAERRHYGVYRFDYWGQGTQVTVSS”, the “polyreactivity (PSR sort gate)” value was “low polyreactivity”.

Consider “QVQLVESGGGLVQAGGSLRLSCAASGSIFYVYAMGWYRQAPGKEREMVAAISKSGGSTYYADSVKGRFTISRDNAKNTVYLQMNSLKPEDTADYYCAAYFSYGSIIEDYWGQGTQVTVSS”, for which the “polyreactivity (PSR sort gate)” value was “low polyreactivity”.

As for “QVQRVESGGGLVQAGGRLRVSCAASGRTFYIYAMGWYRQAPGKERELVADITSGGSTYYADSVKGRFTISRDNAKNTVYLQMNCLKPEDTAVYYCNAGPHWFYRYGRYDYWGQGTQVTVSS”, the “polyreactivity (PSR sort gate)” value is “low polyreactivity”.

Turning to “QVQLVESGGGLVQAGGSLRLSCAASGIIFGVNAMGWYRQAPGKERELVASITSGGSTNYADSVKGRFTISRDNAKNTVYLQMNSLKPEDTAVYYCNARWWAPGRPGDEINRILDYWGQGTQVTVSS”, the “polyreactivity (PSR sort gate)” value was “low polyreactivity”.

For “QVQLVESGGGLVQAGGSLRLSCAASGRIFVRNAMGWYRQAPGKEMEFVAAISRSGGSTYYADSVKGRFTISRDNAKNTVYLQMNSLKPEDTAVYYCAADYPKTYTSKFNYWGQGTQVTVSS”, the “polyreactivity (PSR sort gate)” value is reported as “high polyreactivity”.

As for “QVQRVESGGGLVQAGGSLRLSCAASGITFKYYGMGWYRRAPGKERELVAAITRSGGSTSYADSVKGRFTISRDNAKNTVYLQMHSLKPEDTAVYYCAAERYVLTWLGIERYYWGQGTQVTVSS”, the “polyreactivity (PSR sort gate)” value is “high polyreactivity”.

Turning to “QVHLQESGGGLVQAGGSLRLSCAASRTIFRISDMGSYRQAPGKEREFVAAITYGANTYYADSGKGRFTISRDNAKNSVYLQMNSLKADDTAVYYCAVPPVKETILDYWGQGTQVNVSS”, the “polyreactivity (PSR sort gate)” value was “low polyreactivity”.

For the sequence “QVQLVESGGGLVQAGGSLRLSCAASGSTFGTYAMGWYRQAPGKERELVAVISWSDGRTYYADSVKGRFTISRDNAKNTVYLQMISLKPEDTAVYYCNARLDTFVPRYGYWGQGTQVTVSS”, the “polyreactivity (PSR sort gate)” value is “high polyreactivity”.

Take “QVQLVESGGGLVQAGGSLRLSCAASGRIFSSNAMGWYRQAPGTERELVAAITSGGSTYADSVKGRFTISRDNAKNTVYLQMNSLKPEDTAVYYCATRQGWYGWYGYWGQGTQVTVSS”: the “polyreactivity (PSR sort gate)” value is given as “high polyreactivity”.

Take “QVQLVESGGGLVQAGGSLRLSCAASGSTSRYNVMGWSRQPPGKERELVAAISSRGVSTYYADSVKGRFTISRDNAKNTVYLQMNSLKPEDTAVYYCAALYGGPSHYGYWGQGTQVTVSS”: the “polyreactivity (PSR sort gate)” value is “high polyreactivity”.

On to “QVQLVESGGGLVQAGGSLRLSCAASGRTFRYYAMGWYRQAPGKERELVAAISSSGDRTYYADSVKGRFTISRDNAKNTVYLQMNSLKPEDTAVFYCAADRGARGDYWGQGTQVTVSS”, for which the “polyreactivity (PSR sort gate)” value is listed as “high polyreactivity”.

On to “QVQLVESVGGLVQAGGSLRLICAASGYTFSRNAMGWYRPAPGKERELVAVISSGGSTYYADSVKGRFTISRDNAKNTVYLQMNSLKPEDTAVYYCNTGVYRYGYWYDYWGQGTQVTVSS”, for which the “polyreactivity (PSR sort gate)” value is on record as “high polyreactivity”.

Regarding “QVQLVESGGGLVQAGGSLRLSCAASGRIFPVYTMGWYRQAPGKERELVAAITSSGGSTYYADSVKGRFTISRDNAKNTVYLQMNSLKPEDTAVYYCAKRAGWAYYYWGQGTQVTVSS”, the “polyreactivity (PSR sort gate)” value is listed as “high polyreactivity”.

Turning to “QVQLVESGGGLVQAGGSLRLSCAASGRTFYHNAMGWYRQAPGKERELVATINSGGSTYADSVKGRFTISRDNAKNTVYLQMISLKPEDTAVYYCASTFWSRSRFYYRYDYWGQGTQVTVSS”, the “polyreactivity (PSR sort gate)” value is listed as “high polyreactivity”.

“QVQLQESGGGLVQAGGSLRLTCAASGSISAVAAMGWYRQAPGKEREFAASVNWGTNTNYADSLKGRFTISRDNAINTLYLQMNSLNPEDTAVYYCGVLPDWETRHDYWGHGTQVTVSS”: the “polyreactivity (PSR sort gate)” value is reported as “low polyreactivity”.

As to “QVQLVESGGGLVQAGGSLRLSCAASGSIFSSNAMGWSRQAPGKERELVASIRRGGSTYYADSVKGRFTISRDNAKNTVYLQMNSLKPEDTAVYDCARRYVPWYATYDHWGQGTQVTVSS”, the “polyreactivity (PSR sort gate)” value is given as “high polyreactivity”.

“QVQLVESGGGLVQAGGSLRLSCAATGFTFRFYAIGWYRQAPGKERELVAAISSRGTTTYYADSVKGRFTISRDNAKNTVYLQMNSLKPEDTAVYYCNKEYTTYGYDLEYDYWGQGTQVTVSS”: the “polyreactivity (PSR sort gate)” value was “low polyreactivity”.

For “QVQLVESGGGLVQAGGSLRLSCAASGNTLRTYGMGWYRQAPGKEREFVAAITYSGGSTYYADSVKGRFTISRDNAKNTVYLQMNSLKPEDTAVYYCAARYRSHYRRITPYDSWGQGTQVTVSS”, the “polyreactivity (PSR sort gate)” value is recorded as “high polyreactivity”.

For “QVQLVESGGGLVQAGGSLRLSCAASGSTLSQNAMGWSRQAPGKEREFVADISGSGDSTYYADSVKGRITISRDNAKNTVYLQMNSLKPEDTAVYYCAAEELSHYEYWGKGTQVTVSS”, the “polyreactivity (PSR sort gate)” value was “low polyreactivity”.

With “QVQLVESRGGLVQAGGSLRLSCAASGRIFHYYVMGWYRQAPGKERELVARITFNGGGTYYADSVKGRFTISRDIAKNTVYLQMNRLKPEDTAVYYCNARYPWRDWEDDYWGQGTQVTVSS”, the “polyreactivity (PSR sort gate)” value is recorded as “low polyreactivity”.

Regarding “QVQLEESGGGLVQAGGSLRLSCAASGFTFVDYVMGWYRQAPGKERELVAAISRRAGRTYYADSVKGRFTNSRDNAKNTVYFQMNSLKREDTAVYSCAAYLSRSYYAYDYWGQGTQVTVSS”, the “polyreactivity (PSR sort gate)” value is “high polyreactivity”.

Regarding “QVQLVESGGGLVQAGGSLRLSCAASGITFNLNDMGWYRQAPGKERELVAAITSGGNTSYADSVKGRFTISRDNAKNTVYLQMNSLKPEDTAVYYCAADLHTELYKMDYWGQGTQVTVSS”, the “polyreactivity (PSR sort gate)” value is on record as “low polyreactivity”.

In the case of “QVQLVESGGGLVQAGGSLRLICAASGRTFTYYDMGWYRQAPGKERELVAGITARGGSTYADSVKGRFTISRDNAKNTVYLQMNSLKPEDTAVYYCAADLYTSLDSTYDYWGQGTQVTVSS”, the “polyreactivity (PSR sort gate)” value is reported as “low polyreactivity”.

Take “QLQLVESGGGLVQAGGSLRLSCAASGITFQWYAMGWYRQAPGKERELVARISSGGSTNYADSVKGRFTISCDNAKYTVYLQMNSVKPEDTAVYYCNARYFWFDYWGQGTQVTVSS”: the “polyreactivity (PSR sort gate)” value is reported as “high polyreactivity”.

On to “QVQHVESGGGLVQAGGSLRLSCAASGSTFQYPYTMGWYRQAPRKARELVAVISRTGGSTFYADSVKGRFTISRDNAKNTVYLQMNSLKPEDTAVYYCNARPRYKYPSYDYWGQGTQLTVSS”, for which the “polyreactivity (PSR sort gate)” value is given as “high polyreactivity”.

With “QVQHVESGGALVQAGGSLRLSCAASGSTFTRNAMGWDRHAPGKERELVAAITSSGTSTYYADSVKGRFTISRDNAKNTVYLQMNSLKPEATAVYYCAAGIQSTYPKGGYRVTYYYWGQGTQVTVSS”, the “polyreactivity (PSR sort gate)” value is reported as “high polyreactivity”.

On to “QVQLVDSGGGLVQAGGSLRLSCAASGFTIVHNAMGWYRQAPGKERELVAAISSSGGRTYYADSVKGRFTISRDNAKNTVYLQMNSLKPEDTAVYYCNARGYRGYDYWGQGTQVTVSS”, for which the “polyreactivity (PSR sort gate)” value is “high polyreactivity”.

Turning to “QVQLVESGGGLVQAGGRLRLSCAASGFTFRRYTMGWYRQAPGKERELVAVISASGGSTYYADSEKGRFTISRDNAKNTVYLQMNSLKPEDTAVYYCNAVGTPYGLDEYWGQGTQVTVSS”, the “polyreactivity (PSR sort gate)” value is given as “high polyreactivity”.

For the sequence “QVQLVESGGGLVQAGGSLRLSCAASGSIFSDNAMGWYRQAPGKERDLVAAISWIGDSTDYADSVKGRFTISRDNAKNTVYLQMNSLKPEDTAVYYCAADAKVVSPRYRANDIGMFYWGQGTQVTVSS”, the “polyreactivity (PSR sort gate)” value is recorded as “low polyreactivity”.

For “QVQLVESGGGLVQAGGSLRLSCAASGGIFPWNAMGWYRQAPGKERELVAAIDNTDGTHYADSVKGRFTISRDNAKNTVYLQMNSQKPEDTAVYYCAAEYYYFVYPFYNWGYEYWGQGTQVTVSS”, the “polyreactivity (PSR sort gate)” value is recorded as “high polyreactivity”.

For “QVQLVESGGGLVQAGGSLRLSCAASGRIFPPNAMGWYRQAPGKERELVAGITSSGDTTYYADSVKGRFTISRDNAKNTVYLQMNSLKPEDTAVYYCAKDEVYADDRSALFDYWGQGTQVTVSS”, the “polyreactivity (PSR sort gate)” value is “low polyreactivity”.

Take “QVQLQESGGCLVLAGGSLRLSCAASGYIFDTCPMGWYRQAPGKEREFVASIDHGSNTYYADSVKGRFTISRDSAKNTVYLQMNSLKPEDTAVYYCAVRDDGSYTYGNWGQGTQVTVSS”: the “polyreactivity (PSR sort gate)” value was “high polyreactivity”.

For the sequence “QVQLVESGGGIVQAGGSLRLSCAASGFIFNTNAMGWYRQAPGKERELVAGISRSGVRTYYADSVKGRFTISRDNAKNTVYLQMNSLKPEDTAVYYCAATSLPRYYYWGQGTQVTVSS”, the “polyreactivity (PSR sort gate)” value is listed as “low polyreactivity”.

As for “QVQLVESGGGLVQAGGSLRLSCAASGSIFVNNAMVWYRQAPGKERELVAAISSRGGSTYYADSVKGRFTISRDNAKNTVYLQMNSLKPEDTAVYYCAAAGYGKVRGDYWGQGTQVTVSS”, the “polyreactivity (PSR sort gate)” value is “low polyreactivity”.

With “QVQLVESGGGLVQAGGSLRLSCAASGNIFDHYAMGWYRQAPGKERELVASITDSGDSTSYADSVKGRFTISRDNAKNTVYLQMNSLKPEDTAVYYCAADPYSVYGGDYWGQGTQVTVSS”, the “polyreactivity (PSR sort gate)” value is “low polyreactivity”.

Regarding “QVQLVESGGGLVQAGGSLRLSCAASGLTLAPYAMGWYRQAPGKERELVAAITFSGGSTYYADSVKGRFTISRDNAKNTVYLQMNSLKPEDTAVYYCARDTWAYKNGYPYYSWGQRTQVTVSS”, the “polyreactivity (PSR sort gate)” value is on record as “low polyreactivity”.

Regarding “QVQLVESGGGLVQAGGSLRLSCAASGSIFPSYAMGWYRQAPGKERELVATISGSGTRTYYADSVKGRFTISRDNAKYTFYLQMNSLKPEDTAVYYCAAETHVESGSRDFYTEDYWGQGTQVTVSS”, the “polyreactivity (PSR sort gate)” value was “low polyreactivity”.

Regarding “QVQLVESGGGLVQAGGSLRLSCAASGSTLTYYVMGWSRQAPGKERELVAAITDSGGGTYYADSVKGRFTISRDNAKNTVYLQMNSLKPEDTAVYYCNAYYPYGLASFYYWGQGTQVTVSS”, the “polyreactivity (PSR sort gate)” value is recorded as “low polyreactivity”.

In the case of “QVQLVESGGGLVQAGCSLLLICAASGRTFCFNTMGWYRQAPGKERELVASISGSGGRTYFADSVKGRFTISRDNEKNTVYFQMNSLKPEDTAVYYCAARRYSRDYDYWGQGTQVTVSS”, the “polyreactivity (PSR sort gate)” value is given as “high polyreactivity”.

As to “QVQLVESRGGLVQAGGSLRLSCAASGSTFRTYAMGWYRQAPGKERELVADITWRGGSTYYADSVKGRFTISRDNAKNTVYLQMNSLKPEDTAVYYCATDRGPEVVLYDYWGQGTQVTVSS”, the “polyreactivity (PSR sort gate)” value is on record as “low polyreactivity”.
